Literature values in patent publication US11033499B2, “Tablet formulation comprising a GLP-1 peptide and a delivery agent” (priority 2012, dated 2021).

Details: published studies with SNAC and human GLP-1

Question: With “human GLP-1: human GLP-1 given with SNAC in published studies” as the substance, how does the Tmax read?
Answer: The Tmax was 20 to 30 min.
